Data reported in PMC4098866.

Target: laminin from mouse EHS (Engelbreth-Holm-Swarm) sarcoma (mouse)
Assay: ELISA

Row | Substance | Kd
1 | RPSA-(2–209) (from UniProt P14206 2-209) (domain or fragment) | 273 nM
2 | RPSA-(2–220) (from UniProt P14206 2-220) (domain or fragment) | 691 nM
3 | RPSA-(2–295) (from UniProt P14206 2-295) (natural protein) | 666 nM
4 | RPSA-(210–295) (from UniProt P14206 210-295) (domain or fragment) | 374 nM
5 | RPSA-(225–295) (from UniProt P14206 225-295) (domain or fragment) | 344 nM
